Test [1] concerns the target full length recombinant FVIII (Recombinate, Baxter), P00451. Briefly: cell-based or functional assay.
Test [2] deals with FVIII in a pool of normal human plasma (human), P00451. Briefly: cell-based or functional assay.

This note sets out measurements from US20100266586A1.

Sequence of FVIII in a pool of normal human plasma (human), P00451 (P00451 20-2351): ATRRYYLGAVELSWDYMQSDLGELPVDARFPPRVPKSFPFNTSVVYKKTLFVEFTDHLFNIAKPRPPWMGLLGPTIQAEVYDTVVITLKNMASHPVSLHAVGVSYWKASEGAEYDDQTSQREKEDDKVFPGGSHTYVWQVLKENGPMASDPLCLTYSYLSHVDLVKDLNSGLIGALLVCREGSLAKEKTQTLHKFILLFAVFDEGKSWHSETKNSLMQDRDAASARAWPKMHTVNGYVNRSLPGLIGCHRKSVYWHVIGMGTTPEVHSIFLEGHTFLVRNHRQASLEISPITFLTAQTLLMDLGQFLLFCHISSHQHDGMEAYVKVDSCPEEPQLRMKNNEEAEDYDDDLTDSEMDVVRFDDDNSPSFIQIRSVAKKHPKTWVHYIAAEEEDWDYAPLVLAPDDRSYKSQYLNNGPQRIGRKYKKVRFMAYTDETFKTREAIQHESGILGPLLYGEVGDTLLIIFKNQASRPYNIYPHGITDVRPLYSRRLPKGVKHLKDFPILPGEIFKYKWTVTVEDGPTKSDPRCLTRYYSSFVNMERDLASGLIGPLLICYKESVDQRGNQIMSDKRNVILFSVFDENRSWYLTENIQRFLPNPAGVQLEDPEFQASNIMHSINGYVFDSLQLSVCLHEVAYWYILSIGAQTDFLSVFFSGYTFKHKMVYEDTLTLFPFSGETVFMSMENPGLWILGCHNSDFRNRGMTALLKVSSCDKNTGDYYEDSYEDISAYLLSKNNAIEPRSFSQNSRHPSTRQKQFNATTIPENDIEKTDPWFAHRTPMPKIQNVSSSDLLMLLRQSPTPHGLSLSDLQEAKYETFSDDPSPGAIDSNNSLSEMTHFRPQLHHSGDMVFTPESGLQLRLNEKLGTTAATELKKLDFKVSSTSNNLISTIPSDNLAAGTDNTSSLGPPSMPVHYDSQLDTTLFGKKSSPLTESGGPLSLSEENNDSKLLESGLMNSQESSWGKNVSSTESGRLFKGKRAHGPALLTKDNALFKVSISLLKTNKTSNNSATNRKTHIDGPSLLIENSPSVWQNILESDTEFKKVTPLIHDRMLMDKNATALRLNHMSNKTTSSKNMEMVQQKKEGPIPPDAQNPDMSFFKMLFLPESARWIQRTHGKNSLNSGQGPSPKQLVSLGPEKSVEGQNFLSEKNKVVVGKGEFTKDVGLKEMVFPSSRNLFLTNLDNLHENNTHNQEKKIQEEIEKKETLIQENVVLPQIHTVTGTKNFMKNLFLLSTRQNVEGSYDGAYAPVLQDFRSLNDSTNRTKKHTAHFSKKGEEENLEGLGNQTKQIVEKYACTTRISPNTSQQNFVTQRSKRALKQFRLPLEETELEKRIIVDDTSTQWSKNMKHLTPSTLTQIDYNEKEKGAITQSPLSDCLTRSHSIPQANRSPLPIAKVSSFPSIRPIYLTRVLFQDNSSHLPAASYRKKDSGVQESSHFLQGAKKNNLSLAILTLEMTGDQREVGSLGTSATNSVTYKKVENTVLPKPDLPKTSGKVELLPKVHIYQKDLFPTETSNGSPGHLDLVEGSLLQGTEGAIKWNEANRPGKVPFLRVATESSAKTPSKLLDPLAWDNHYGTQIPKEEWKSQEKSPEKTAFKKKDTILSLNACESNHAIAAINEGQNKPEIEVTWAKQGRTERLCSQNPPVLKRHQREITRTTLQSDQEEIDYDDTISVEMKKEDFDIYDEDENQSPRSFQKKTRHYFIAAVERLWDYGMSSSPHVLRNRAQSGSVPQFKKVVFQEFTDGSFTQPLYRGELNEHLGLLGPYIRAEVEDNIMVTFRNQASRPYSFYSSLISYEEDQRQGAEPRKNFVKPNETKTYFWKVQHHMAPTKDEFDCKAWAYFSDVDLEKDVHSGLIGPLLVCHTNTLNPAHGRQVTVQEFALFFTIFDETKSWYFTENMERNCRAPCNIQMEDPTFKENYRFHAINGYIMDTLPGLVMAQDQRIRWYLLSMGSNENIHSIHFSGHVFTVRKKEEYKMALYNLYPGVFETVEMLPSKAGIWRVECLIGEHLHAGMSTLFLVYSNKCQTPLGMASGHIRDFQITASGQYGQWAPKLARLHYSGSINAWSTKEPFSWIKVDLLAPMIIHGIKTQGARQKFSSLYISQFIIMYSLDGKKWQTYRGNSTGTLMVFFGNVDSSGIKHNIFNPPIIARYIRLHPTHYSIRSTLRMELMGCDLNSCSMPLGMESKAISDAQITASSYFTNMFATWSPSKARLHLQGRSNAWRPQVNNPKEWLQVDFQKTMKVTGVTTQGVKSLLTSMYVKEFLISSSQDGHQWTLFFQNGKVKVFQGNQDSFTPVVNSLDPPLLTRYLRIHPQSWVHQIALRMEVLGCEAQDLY
Sequence of full length recombinant FVIII (Recombinate, Baxter), P00451 (P00451 20-2351): as above

B1: RHD5 (human monoclonal antibody from the lymphoblastoid cell line RHD5) (antibody, V domains shown)
VH: QVQLVQSGAEVKKPGSSVMVSCKASGGTFSSFGISWVRQAPGQGLEWVGGIIPIFGTANTARNFQNRVTITADEFTSTAYIRLRSLRSEDTAVYYCVGGRDAYSFDGFDVWGQGTMVTVSSASTKGPSVFP
VL: SSGLTQPHSVSVSPGQTANITCSRDKLGHKFASWYQQKPGQSPALLIYQDSKRPSGIPERFSGSNSGNTATLTISGTQAMDEADYYCQAWDNTTAVFGGGTKLTVLSQPKAAPSVTLFPPS
B1: the inhibition of FVIII activity at a final concentration of RHD5 of 100 microgram/ml (Bethesda assay, full length recombinant FVIII) in test [1] was found to be 98%. Moreover, the inhibition of FVIII activity at a final concentration of RHD5 of 100 microgram/ml (Bethesda assay, plasma) in test [2] was determined as 97%.

B2: Krix-1 (human monoclonal antibody KRIX-1 produced in a human lymphoblastoid cell line, native glycosylation) (antibody, human IgG4, V domains shown)
VH: QVQLVQSGAEVKKPGASVKVSCKTSGYNFTGYSASGHIFTAYSVHWVRQAPGQGLEWMGRINPNSGATDYAHKFQGRVTMSRDTSISTAYMELSRLTSDDTAMYYCARADNYFDIVTGYTSHYFDYWGRGTLVTVSSASTKGPSVF
VL: EIVLTQSPGTLSLSPGERATLSCRASQSVASAYLAWYQQKPGQAPRLLIYGASSRATDIPHRFSGSGSGTDFTLTISRLEPEDFAVYYCQQYGTSALLTFGGGTKVEIKRTVAAPSVFIFPPS
modifications: here or on the partner: N-linked glycosylation site at Asn47-Thr49, native glycan as made by the lymphoblastoid cell line
In test [2], B2 showed an inhibition of FVIII activity (chromogenic assay, normal human plasma) of 90% and a maximal inhibition of FVIII activity (Bethesda assay, chromogenic FVIII assay) of 90%.

B3: deglycosylated KRIX-1 (Krix-1 treated with N-glycosidase-F) (antibody, IgG4, V domains shown)
VH: B2 VH
VL: B2 VL
modifications: here or on the partner: N-linked glycan removed by N-glycosidase-F (2 U/ml, 72 h, 37 C)
As to B3, in test [2], the inhibition of FVIII activity (chromogenic assay, normal human plasma) came to 50% and the maximal inhibition (plateau inhibition) of FVIII activity (Bethesda assay, chromogenic FVIII assay) is 50%.
